# The supplement of paper PMC7877785
# ± gives the uncertainty stated by the source.
# Assay: self-splicing fitness, log relative to wild type (ln ratio); higher = more splicing; Tetrahymena group I intron in knt gene, E. coli kanamycin selection, DiMSum; sequences stand for … in CUCUCU…GGAGGGAAAAGUUAUCAGGCAUGCACCUGGUAGCUAGUCUUUAAACCAAUAGAUUGCAUCGGUUUAAAAGGCAAGACCGUCAAAUUGCGGGAAAGGGGUCAACAGCCGUUCAGUACCAAGUCUCAGGGGAAACUUUGAGAUGGCCUUGCAAAGGGUAUGGUAAUAAGCUGACGGACAUGGUCCUAACCACGCAGCCAAGUCCUAAGUCAACAGAUCUUCUGUUGAUAUGGAUGCAGUUCACAGACUAAAUGUCGGUCGGGGAAGAUGUAUUCUUCUCAUAAGAUAUAGUCGGACCUCUCCUUAAUGGGAGCUAGCGGAUGAAGUGAUGCAACACUGGAGCCGCUGGGAACUAAUUUGUAUGCGAAAGUAUAUUGAUUAGUUUUGGAGUACUCGUGGUCG
# How it was run: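 Colonies from six replicate transformations of E. coli BL21(DE3) were pooled and amplicon-sequenced on an Illumina HiSeq 2500. The library placed an intron with all eight P1ex-region nucleotides randomised inside the knt kanamycin-resistance gene on pET-22b(+), and cells grew overnight at 37°C or 30°C on LB agar with or without 25 μg/mL kanamycin (plus 100 μg/mL carbenicillin, 50 μM IPTG, 0.2% rhamnose). Fitness is the DiMSum error-weighted combination of wild-type-normalised replicate fold changes, kanamycin versus none.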
Sequence,self-splicing fitness (ln) (30 °C),self-splicing fitness (ln) (37 °C)
CUUGAGCAAUAUUACGUAGU,-3.28 ± 0.3,-2.11 ± 0.33
CUUGAGCAAUAUUACGUCAU,-3.58 ± 0.29,-2.88 ± 0.31
CUUGAGCAAUAUUACGUGAC,-2.55 ± 0.24,-1.08 ± 0.19
CUUGAGCAAUAUUACGUGUA,-2.71 ± 0.14,-2.84 ± 0.2
CUUGAGCAAUAUUACGUGUG,-2.12 ± 0.07,-0.901 ± 0.073
CUUUAGCAAUAUUACGAACU,-3.28 ± 0.24,-2.54 ± 0.19
CUUUAGCAAUAUUACGCAAG,-2.43 ± 0.22,-1.67 ± 0.3
CUUUAGCAAUAUUACGCGCU,-3.14 ± 0.25,-0.469 ± 0.17
CUUUAGCAAUAUUACGCGUA,-3.14 ± 0.26,-3.28 ± 0.35
CUUUAGCAAUAUUACGCUAC,-2.83 ± 0.35,
CUUUAGCAAUAUUACGGCAA,-2.06 ± 0.24,-1.98 ± 0.28
CUUUAGCAAUAUUACGGGAU,-3.8 ± 0.22,-2.67 ± 0.19
CUUUAGCAAUAUUACGGUGU,-3.52 ± 0.21,-3.12 ± 0.25
CUUUAGCAAUAUUACGUACG,-0.271 ± 0.098,0.109 ± 0.12
CUUUAGCAAUAUUACGUCGG,-1.79 ± 0.11,-1.25 ± 0.12
CUUUAGCAAUAUUACGUUAU,-3.64 ± 0.23,-1.79 ± 0.19
GAAAAGCAAUAUUACGACAU,-0.184 ± 0.011,0.116 ± 0.032
GAAAAGCAAUAUUACGACGU,0.263 ± 0.088,0.769 ± 0.099
GAAAAGCAAUAUUACGAUUU,-0.346 ± 0.052,-0.372 ± 0.073

Sequence,self-splicing fitness (ln) (30 °C),self-splicing fitness (ln) (37 °C)
GAAAAGCAAUAUUACGCCCU,0.325 ± 0.12,-0.233 ± 0.14
GAAAAGCAAUAUUACGCGAC,,0.397 ± 0.26
GAAAAGCAAUAUUACGGACC,-0.128 ± 0.094,-0.398 ± 0.15
GAAAAGCAAUAUUACGGAUU,-2.03 ± 0.09,-1.03 ± 0.11
GAAAAGCAAUAUUACGGCAG,-3.02 ± 0.25,-1.96 ± 0.23
GAAAAGCAAUAUUACGGCGC,0.706 ± 0.11,0.245 ± 0.18
GAAAAGCAAUAUUACGGUCU,-0.737 ± 0.057,-0.398 ± 0.072
GAAAAGCAAUAUUACGGUGU,-2.55 ± 0.096,-0.927 ± 0.11
GAAAAGCAAUAUUACGGUUC,-3.18 ± 0.11,-2.88 ± 0.16
GAAAAGCAAUAUUACGGUUG,-2.39 ± 0.088,-1.42 ± 0.12
GAAAAGCAAUAUUACGUCGA,-1.14 ± 0.088,-0.0848 ± 0.12
GAAAAGCAAUAUUACGUCUG,-0.835 ± 0.068,-0.219 ± 0.084
GAAAAGCAAUAUUACGUCUU,-0.419 ± 0.068,0.391 ± 0.086
GAAAAGCAAUAUUACGUGCA,-0.843 ± 0.073,-0.0478 ± 0.085
GAAAAGCAAUAUUACGUUCU,-3.87 ± 0.17,-3.19 ± 0.18
GAACAGCAAUAUUACGAAUA,-1.48 ± 0.098,-0.755 ± 0.11
GAACAGCAAUAUUACGACAC,-0.422 ± 0.08,0.0163 ± 0.1
GAACAGCAAUAUUACGACUA,-0.346 ± 0.085,-0.46 ± 0.097
GAACAGCAAUAUUACGCAUG,-1.18 ± 0.064,-0.291 ± 0.08
